Test system: Human whole blood
Assay: Cytokine release in whole blood at 24 hrs, MSD assay
Format: cell-based
Protocol: Human whole blood (Lithium heparin tubes) was taken from one donor (HTA #031219-06) at UCB Pharma Slough, UK according to approved ethical sample collection protocol.
In a Greiner 96-well non-binding microplate, Fab-X and Fab-Y combination 6294-X/4133-Y was added to PBS to give a Fab-KD-Fab concentration of 2000 nM. Similarly, stocks of 4133-6294 BYbe and NegCtrl BYbe were prepared in PBS at 2000 nM. The microplate was incubated for 1 hr at 37° C., 5% CO2. Following the incubation, Fab-KD-Fab and BYbe reagents were then serially diluted in PBS 1 in 5, seven times to produce to form an 8-point dose curve.
12.5 μl of Fab-KD-Fab or BYbe dilution was transferred into Corning Costar 96-well, cell culture treated, U-shaped-bottom microplate (cat no. 07-200-95) and 237.5 μl of whole blood added to each well. Final well concentrations of Fab-KD-Fab or BYbes were 100-0.00128 nM. […]
Measurement of cytokines was carried out using the V-PLEX Human Proinflammatory Panel I (4-Plex) (IFN-γ, IL-1β, IL-6, TNF-α, cat no. K15052D, Meso Scale Discovery) according to manufacturer's instructions. […] The plates were washed as before, and 150 μl of read buffer (diluted 1 in 2 in dH2O) was added to each well. The plates were then analysed on a SECTOR Imager 6000 (Meso Scale Discovery).

## Campath: anti-CD52, clinical grade, indicated by FDA for B-cell Chronic Lymphocytic Leukaemia; positive control [reference compound]
Campath 10 μg/ml, other reagents 100-0.00128 nM
  levels of IL-1β: marked level

B1: 4133-6294 BYbe: anti-CD45 BYbe (Fab-scFv): 4133 Fab HC-G4S linker-6294 scFv heavy chain paired with 4133 light chain (antibody)
heavy: QEQLVESGGGLVQPEGSLTLTCTASGFSFSGNYYMCWVRQAPGKGLEWIGCLYTGSSGSTYYASWAKGRFTISKTSSTTVTLQMTSLTAADTATYFCARDLGYEIDGYGGLWGQGTLVTVSSGQPKAPSVFPLAPCCGDTPSSTVTLGCLVKGYLPEPVTVTWNSGTLTNGVRTFPSVRQSSGLYSLSSVVSVTSSSQPVTCNVAHPATNTKVDKTVAPSTCSKPGGGGSGGGGSEVQLVESGAELARPGASVKMSCKASGYTFTSYTMHWVKQRPGQCLEWIGYINPSSGYTEYNQKFKDKTTLTADKSSSTAYLQLSSLTSEDSAVYYCARVGDGFYPSWLAYWGQGTLVTVSSGGGGSGGGGSGGGGSGGGGSDIQMTQSPKFLLVSAGDRVTITCKASQSVRNDVAWYQQKPGQSPKLLIFYASKRYTGVPDRFTGSGYGTDFTFTISTVQAEDLAVYFCQQDYSSPTTFGCGTKLEIK
light: AQVLTQTPSPVSAVVGGTVSISCQASQSVYNNNNLSWYQQKPGQPPKLLIYDASKLASGVPSRFKGSGSGTQFTLTISGVQCDDAATYYCLGGYYSSGWYFAFGGGTKVVVKRTPVAPTVLIFPPAADQVATGTVTIVCVANKYFPDVTVTWEVDGTTQTTGIENSKTPQNSADCTYNLSSTLTLTSTQYNSHKEYTCKVTQGTTSVVQSFNRGDC
100-0.00128 nM, compared with PBS- and NegCtrl BYbe-treated wells
  induction of inflammatory cytokines (IFN-γ, IL-6, TNF-α): little or no induction
